Measured values published in article PMC12141448.

Columns and labels:
[1] = target: PelC lipoprotein of P. aeruginosa PAO1 (Pseudomonas aeruginosa PAO1); assay: cryo-EM structure; PelBC complex in MSP1D1 nanodiscs (POPC:POPG 70:30), 50 mM HEPES pH 7.4, 150 mM NaCl; no symmetry imposed; 2.52 Å
[2] = target: PelB of P. aeruginosa PAO1, C-terminal fragment (residues 762-1193) with three periplasmic TPR repeats and the transmembrane β-barrel (Pseudomonas aeruginosa PAO1) (UniProt Q9HZE5); assay: as above

Substance: PelC lipoprotein of P. aeruginosa PAO1 (natural protein)
- stoichiometry N [1]: 12 subunits
- stoichiometry N (PelC per PelB) [2]: 12
